Source: patent publication US20090136481A1

Target: recombinant myostatin
Experiment: cell-based or functional assay

macrophage migration in chemotaxis assay (ZAMS medium with 5 µg/ml myostatin, with or without 350 protein): 20 fold
Substance: 350 protein (dominant negative peptide of myostatin C-terminally truncated at amino acid 350; amino acids 267-350 of bovine myostatin) (from UniProt O18836 267-350)
